For experiment [1], the target named is His-Rep 1–362 (full-length Rep protein of Mungbean yellow mosaic India virus) (Mungbean yellow mosaic India virus (MYMIV)). As to the kind of experiment: sucrose gradient centrifugation.
Experiment [2] has as its target His-Rep 120–362 (Mungbean yellow mosaic India virus (MYMIV)). The experiment in a line: sucrose gradient centrifugation.

As a reminder, the stoichiometry N is a count of units in the complex or per binding partner.

With “His-Rep 1–362 (full-length Rep protein of Mungbean yellow mosaic India virus) (enzyme)”, the stoichiometry N in experiment [1] was found to be 24. His-Rep 120–362 (domain or fragment) returned a stoichiometry N in experiment [2] of 24.

The record behind these values is PMC1669733.
